In PMC5023229, “Role of NAD^+-Dependent Malate Dehydrogenase in the Metabolism of Methylomicrobium alcaliphilum 20Z and Methylosinus trichosporium OB3b” (Microorganisms, 2015):

Key:
Test in all cases: purified protein
[1] = substrate: O=C(O)C[C@H](O)C(=O)O; settings: malate oxidation, co-substrate NAD+
[2] = substrate: NC(=O)C1=CN([C@@H]2O[C@H](COP(=O)(O)OP(=O)(O)OC[C@H]3O[C@@H](n4cnc5c(N)ncnc54)[C@H](O)[C@@H]3O)[C@@H](O)[C@H]2O)C=CC1; type: biochemical, Methylosinus trichosporium; settings: oxaloacetate reduction, co-substrate oxaloacetate, pH 9.5, 30 °C, varied: cofactor
[3] = substrate: NC(=O)c1ccc[n+]([C@@H]2O[C@H](COP(=O)(O)OP(=O)(O)OC[C@H]3O[C@@H](n4cnc5c(N)ncnc54)[C@H](O)[C@@H]3O)[C@@H](O)[C@H]2O)c1; type: biochemical, Methylosinus trichosporium; settings: malate oxidation, co-substrate malate, pH 9.5, 30 °C, varied: cofactor
[4] = substrate: O=C(O)CC(=O)C(=O)O; type: biochemical, Methylosinus trichosporium; settings: oxaloacetate reduction, co-substrate NADH, pH 9.5, 30 °C
[5] = substrate: NC(=O)C1=CN([C@@H]2O[C@H](COP(=O)(O)OP(=O)(O)OC[C@H]3O[C@@H](n4cnc5c(N)ncnc54)[C@H](O)[C@@H]3O)[C@@H](O)[C@H]2O)C=CC1; type: biochemical, Methylotuvimicrobium alcaliphilum; settings: oxaloacetate reduction, co-substrate oxaloacetate, pH 10, 30 °C, varied: cofactor
[6] = substrate: NC(=O)c1ccc[n+]([C@@H]2O[C@H](COP(=O)(O)OP(=O)(O)OC[C@H]3O[C@@H](n4cnc5c(N)ncnc54)[C@H](O)[C@@H]3O)[C@@H](O)[C@H]2O)c1; type: biochemical, Methylotuvimicrobium alcaliphilum; settings: malate oxidation, co-substrate malate, pH 10, 30 °C, varied: cofactor
[7] = substrate: O=C(O)CC(=O)C(=O)O; type: biochemical, Methylotuvimicrobium alcaliphilum; settings: oxaloacetate reduction, co-substrate NADH, pH 10, 30 °C

| Protein | Km ([1]; pH 9.5, 30 °C, pH 9.5) [µM] | kcat ([1]; pH 9.5, 30 °C, pH 9.5) [s⁻¹] | Km [2] [µM] | Km [3] [µM] | Km [4] [µM] | kcat [4] [s⁻¹] | Km ([1]; pH 10, 30 °C, pH 10.0) [µM] | kcat ([1]; pH 10, 30 °C, pH 10.0) [s⁻¹] | Km [5] [µM] | Km [6] [µM] | Km [7] [µM] | kcat [7] [s⁻¹] |
| --- | --- | --- | --- | --- | --- | --- | --- | --- | --- | --- | --- | --- |
| MDH from M. trichosporium OB3b (MDH-OB3b) (Methylosinus trichosporium OB3b) (protein, full-length, C-terminal His6 (pET22b NdeI/XhoI), E. coli BL21 (DE3), Ni-NTA; homotetramer 140 kDa; forward primer encodes (M)MARKKIA; LDH-like MDH, group III) MARKKIALIGAGNIGGTLAHLIGLKELGDIVLFDIAAGVPQGKALDLAQSSPVSGFDATISGADDYSAIAGADVVIVTAGVPRQPGMSRDDLLSVNLGVVSKVGAGIKTYAPDAFVICITNPLDVMVWALQKCSGLPPAKVVGMAGVLDSARFRYFLAEELQVSVEDVSAFVLGGHGDDMVPSVRYSTVAGVPLPDLVGMGWITQAKIDAIVERTRKGGGEIVSLLKTGSAYYAPAASAIAMAESYLKDKRRVLPCAAHLSGQYGVSDLYVGVPVVIGANGVERIVEISLDSAERQMFDKSVASVRTLIAASKALDPSFA | 1280 ± 170 | 516 | 37.6 ± 4.6 | 330 ± 40 | 59 ± 7 | 1141 |  |  |  |  |  |  |
| MDH from M. alcaliphilum 20Z (MDH-20Z) (Methylotuvimicrobium alcaliphilum 20Z) (protein, full-length, C-terminal His6 (pET22b NdeI/XhoI), E. coli BL21 (DE3), Ni-NTA; homodimer 70 kDa) MKTPVKIAVTGAAGQISYSLLFRLASGELLGPDQPMIFHLLETPQALALGALNGVVMELNDCAYPLLHKIVTTDDPDVAFKDVDYAFLIGASPRKPGMERKDLLAINAQIFSVQGQALSKVASRDVKVLVTGNPANTNALIAISNAPDLRPENFSAMMMLDHKRATFQLADKCGVLSNDIKNIIIWGNHSAGQYPDLHHAKVKGQDALSLVEWDWFVDKFIPTVQQRGAVVIQAVGRSSAASAANAALNLMRNWVFGTDEGNWISMAVPSDGSYGIEKDLVYSFPVEIKNGEISIVQGLEISDFSREKMRKSEAELKEEREAVKHLL |  |  |  |  |  |  | 110 ± 10 | 621 | 25.2 ± 0.4 | 450 ± 80 | 340 ± 30 | 870 |
